Consider three proteins from FireProtDB (doi:10.1002/pro.2449).

B1: Guanyl-specific ribonuclease T1 wild type, P00651 (protein)
chain: MMYSKLLTLTTLLLPTALALPSLVERACDYTCGSNCYSSSDVSTAQAAGYQLHEDGETVGSNSYPHKYNNYEGFDFSVSSPYYEWPILSSGDVYSGGSPGADRVVFNENNQLAGVITHTGASGNNFVECT
B2: Variable large protein wild type, Q5DVG3 (protein)
chain: MNTKKISSAILLTTFFVFINCKSQVADKDDPTNKFYQSVIQLGNGFLDVFTSFGGLVAEAFGFKSDPKKSDVKTYFTTVAAKLEKTKTDLNSLPKEKSDISSTTGKPDSTGSVGTAVEGAIKEVSELLDKLVKAVKTAEGASSGTAAIGEVVDNAAAAKAADKDSVTGIAKGIKEIVEAAGGSKKLKAAAAKGENNKGAGKLFGKAGDAAHGDSEAASKAAGAVSAVSGEQILSAIVKAAAAGDQEGKKPGEAKNPIAAAIGEGDGDAEFNQDGMKKDDQIAAAIALRGMAKDGKFAVKNDEKGKAEGAIKGAAESAVRKVLGAITGLIGDAVSSGLRKVGDSVKAASKETPPALNK
B3: Guanyl-specific ribonuclease Sa wild type, P05798 (protein)
chain: DVSGTVCLSALPPEATDTLNLIASDGPFPYSQDGVVFQNRESVLPTQSYGYYHEYTVITPGARTRGTRRIITGEATQEDYYTGDHYATFSLIDQTC

The conditions of the first data set: Aspergillus oryzae (strain ATCC 42149 / RIB 40); pH 7; 25 °C; Urea; MOPS; transition: 2; reversible: yes; whole UniProt chain shown.
Take B1: the denaturant m value was 1.17 kcal/mol/M, the “denaturant midpoint (higher = more stable)” value stood at 5.2 M and the unfolding free energy worked out at 6.1 kcal/mol.

The same data set, now with this note: Aspergillus oryzae (strain ATCC 42149 / RIB 40); pH 7; Thermal; DSC; MOPS; transition: 2; reversible: yes; whole UniProt chain shown.
What is called Tm is the temperature at the midpoint of the melting transition. As for B1, the Tm was 52.5 °C and the “unfolding enthalpy (calorimetric)” value was found to be 107 kcal/mol.

Still in this data set, the particulars now being: Borreliella burgdorferi; pH 7; 25 °C; Urea; CD; Sodium Phosphate Buffer; transition: 2; reversible: yes; whole UniProt chain shown.
In the case of B2, the denaturant m value stood at 3.86 kcal/mol/M, the “denaturant midpoint (higher = more stable)” value was 1.19 M and the unfolding free energy came to 4.6 kcal/mol.

Staying with this data set, now noted: Kitasatospora aureofaciens; pH 7; Thermal; DSC; MOPS; transition: 2; reversible: yes; whole UniProt chain shown.
Consider B3, for which the Tm was 48.4 °C and the “unfolding enthalpy (calorimetric)” value turned out to be 92 kcal/mol.
